B1: IL-7: recombinant cytokine (protein, UniProt P13232 26-177, looked up)
Interleukin-7: DCDIEGKDGKQYESVLMVSIDQLLDSMKEIGSNCLNNEFNFFKRHICDANKEGMFLFRAARKLRQFLKMNSTGDFDLHLLKVSEGTTILLNCTGQVKGRKPAALGEAQPTKSLEENKSLKEQKKLNDLCFLKRLLQEIKTCWNKILMGTKEH
B2: IL-35: heterodimeric protein of p35 subunit from IL-12 and EBI3 (protein, UniProt P29459 23-219; Q14213 21-229, looked up)
Interleukin-12 subunit alpha: RNLPVATPDPGMFPCLHHSQNLLRAVSNMLQKARQTLEFYPCTSEEIDHEDITKDKTSTVEACLPLELTKNESCLNSRETSFITNGSCLASRKTSFMMALCLSSIYEDLKMYQVEFKTMNAKLLMDPKRQIFLDQNMLAVIDELMQALNFNSETVPQKSSLEEPDFYKTKIKLCILLHAFRIRAVTIDRVMSYLNAS
Interleukin-27 subunit beta: RKGPPAALTLPRVQCRASRYPIAVDCSWTLPPAPNSTSPVSFIATYRLGMAARGHSWPCLQQTPTSTSCTITDVQLFSMAPYVLNVTAVHPWGSSSSFVPFITEHIIKPDPPEGVRLSPLAERQLQVQWEPPGSWPFPEIFSLKYWIRYKRQGAARFHRVGPIEATSFILRAVRPRARYYVQVAAQDLTDYGELSDWSLPATATMSLGK
B3: IL-27: recombinant cytokine, heterodimer of IL27A (p28) and EBI3 (protein, UniProt Q8NEV9 29-243; Q14213 21-229, looked up)
Interleukin-27 subunit alpha: FPRPPGRPQLSLQELRREFTVSLHLARKLLSEVRGQAHRFAESHLPGVNLYLLPLGEQLPDVSLTFQAWRRLSDPERLCFISTTLQPFHALLGGLGTQGRWTNMERMQLWAMRLDLRDLQRHLRFQVLAAGFNLPEEEEEEEEEEEEERKGLLPGALGSALQGPAQVSWPQLLSTYRLLHSLELVLSRAVRELLLLSKAGHSVWPLGFPTLSPQP
Interleukin-27 subunit beta: B2 Interleukin-27 subunit beta
B4: IL-23: recombinant cytokine, P19 (SEQ ID NO: 1) and P40 (SEQ ID NO: 2) subunits (protein)
chain 1: RAVPGGSSPAWTQCQQLSQKLCTLAWSAHPLVGHMDLREEGDEETTNDVPHIQCGDGCDPQGLRDNSQFCLQRIHQGLIFYEKLLGSDIFTGEPSLLPDSPVGQLHASLLGLSQLLQPEGHHWETQQIPSLSPSQPWQRLLLRFKILRSLQAFVAVAARVFAHGAATLSP
chain 2: IWELKKDVYVVELDWYPDAPGEMVVLTCDTPEEDGITWTLDQSSEVLGSGKTLTIQVKEFGDAGQYTCHKGGEVLSHSLLLLHKKEDGIWSTDILKDQKEPKNKTFLRCEAKNYSGRFTCWWLTTISTDLTFSVKSSRGSSDPQGVTCGAATLSAERVRGDNKEYEYSVECQEDSACPAAEESLPIEVMVDAVHKLKYENYTSSFFIRDIIKPDPPKNLQLKPLKNSRQVEVSWEYPDTWSTPHSYFSLTFCVQVQGKSKREKKDRVFTDKTSATVICRKNASISVRAQDRYYSSSWSEWASVPCS
modifications: P19, UniProt Q9NPF7 20-189; P40, UniProt P29460 23-328

Key:
[1] = system: previously expanded human T cells from three healthy donors; assay: Cytokines, modulators and agonist antibodies with IL-2 on T cell number and memory phenotype; type: cell-based; conditions: for percent naïve and central memory T cells at Day 6: cytokine plus 300 IU/mL IL-2; for CD3+ cells/mL on Day 6: cytokine plus 300 IU/mL IL-2 vs IL-2 alone
Protocol: PBMC from three healthy donors were activated, expanded, and cryopreserved as described in Example 11. […] As previously described, stimulation of the healthy donor T cells prior to cryopreservation were carried out with anti-CD3 (OKT3) stimulation in order to mimic conditions present in the tumor microenvironment (TME).
Cells were next seeded into gas permeable 100M culture vessels and expanded for 7-14 days to achieve a large bank of T cells, and cryopreserved.
Cells were maintained in culture for 6 days, with a 50% medium exchange occurring at 3 days post culture initiation.
At the end of the culture period for all culture conditions, cells were assessed for cell count and sub-phenotypes of naïve and central memory T cells by flow cytometry by staining with CD45RA and CCR7 (naïve, CD45RA+ CCR7+; “central” memory, CD45RA-CCR7+).

[2] = system: previously expanded human T cells from three healthy donors; assay: Effect of T cell adjuvants on T cell viability (total viable CD3+ cell count); type: cell-based; conditions: 62.5 IU/ml-1000 IU/ml
Protocol: Cells were expanded from PBMC derived from Ficoll gradient separation from three healthy donor's apheresis material. […] Because the studies were carried out in healthy donors, stimulation of the T cells was carried out with anti-CD3 (OKT3) stimulation in order to mimic conditions present in the tumor microenvironment (TME).
Cells were next seeded into gas permeable 100M culture vessels and expanded for 7-14 days to achieve a large bank of T cells, and cryopreserved. […] Half of wells were additionally supplemented with 50 ng/mL OKT3, a human anti-CD3 monoclonal antibody. In total, 15 test adjuvant agents were tested for their impact on cell viability in the presence and absence of anti-CD3 activation (see Table E3). Cells were cultured for 6 days total, including a 50% medium exchange on culture day 3, and monitored for total viable CD3+ cell count.

[3] = at each of three tested concentrations (3.9, 250, and 1000 IU/mL)

| Molecule | percent naïve and central memory T cells at Day 6 [1] | CD3+ cells/mL on Day 6 [1] | dose response of cell number [2] | CD3+ cell number [1, 3] | percent naïve and central memory T cells [1, 3] |
| --- | --- | --- | --- | --- | --- |
| B1 | measured increase in the percent naïve and central memory T cells | increase in CD3+ cells/mL on Day 6 | dose dependent response, wherein cell number increased with increasing concentration | – | – |
| B2 | measured increase in the percent naïve and central memory T cells | increase in CD3+ cells/mL on Day 6 | – | – | – |
| B3 | measured increase in the percent naïve and central memory T cells | increase in CD3+ cells/mL on Day 6 | – | significant increase in CD3+ cell number | significant increase in CD3+ cell number as well as percent naïve and central memory T cells |
| B4 | measured increase in the percent naïve and central memory T cells | increase in CD3+ cells/mL on Day 6 | – | – | – |
